Assays:
[1] = cycloheximide chase of SHH-C, HA immunoblot; details: glycan changed form; control: untreated cells
[2] = HA immunoblot of auto-cleavage; details: glycan lost; control: wild-type SHH-HA

sonic hedgehog (SHH): kifunensine (KIF)
degradation_or_half_life [1]: decreases

sonic hedgehog (SHH): N278A
other: proteolytic processing [2]: abolishes

sonic hedgehog (SHH): castanospermine (CST)
degradation_or_half_life [1]: decreases

From PMC4049591
